Where a chain is given by its changes, count along the chain named. In names and notes the source's numbering stands.
Tests used:
[1] = target: T1, Recombinant human FcγRI [CD64], Gln16-Pro288 with C-terminal 6-His tag (human, UniProt P12314 16-288); assay: SPR (Biacore X), Mab amine-coupled on CM4 chip, h-FcγRI as analyte, Langmuïr model
T1 construct: range 16-288; Soluble form bought from R&D Systems; also called h-FcγRI

[2] = target: T2, Recombinant mouse FcγRI [CD64], Gln25-Pro297 with C-terminal 6-His tag (mouse, UniProt P26151 25-297); assay: SPR (Biacore X), steady-state analysis, response at end of association versus m-FcγRI concentration
T2 construct: range 25-297; Soluble form bought from R&D Systems; also called m-FcγRI
T2 sequence: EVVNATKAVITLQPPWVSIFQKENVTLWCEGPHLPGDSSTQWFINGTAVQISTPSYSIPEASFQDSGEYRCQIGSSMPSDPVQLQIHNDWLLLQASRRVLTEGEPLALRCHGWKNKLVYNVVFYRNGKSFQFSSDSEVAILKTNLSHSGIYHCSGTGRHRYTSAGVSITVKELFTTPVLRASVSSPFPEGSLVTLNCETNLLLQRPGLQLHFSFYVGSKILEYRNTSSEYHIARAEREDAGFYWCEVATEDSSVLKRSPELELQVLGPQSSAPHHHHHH

[3] = target: T3, Recombinant human FcγRIIIA variant V [CD16a], Gln17-Gln208 with C-terminal 6-His tag (human, UniProt P08637 17-208); assay: SPR (Biacore X), Mab on CM4 chip, h-FcγRIIIA as analyte, heterogeneous ligand model, major component
T3 construct: range 17-208; 'variant V' is given without a position, so no substitution is written; also called h-FcγRIIIA
T3 sequence (P08637 other isoform, or with tags, fused parts or gaps mutant limits assumed, form in doubt): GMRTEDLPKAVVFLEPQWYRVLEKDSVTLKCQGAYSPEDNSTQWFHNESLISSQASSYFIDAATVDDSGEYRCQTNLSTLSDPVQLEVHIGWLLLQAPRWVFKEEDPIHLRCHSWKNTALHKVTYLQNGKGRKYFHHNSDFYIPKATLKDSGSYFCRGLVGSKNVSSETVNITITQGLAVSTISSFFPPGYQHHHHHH

[4] = target: T3, Recombinant human FcγRIIIA variant V …; assay: SPR (Biacore X), Mab on CM4 chip, h-FcγRIIIA as analyte, heterogeneous ligand model, minor component
[5] = target: T3, Recombinant human FcγRIIIA variant V …; assay: SPR (Biacore X), steady-state analysis, response at end of association versus h-FcγRIIIA concentration
[6] = target: T1, Recombinant human FcγRI [CD64], …; assay: SPR (Biacore X): h-FcγRI injected over c515H7 Mab immobilized on a CM4 sensorchip; Langmuir model
Experimental: (§1) 2017 RU of c515H7 Mab were immobilized using the amine coupling kit chemistry on the second flowcell (FC2) of a CM4 sensorchip. The first flowcell (FC1) activated by NHS and EDC mixture and des-activated by ethanolamine served as the reference surface to check and subtract the non specific interaction between the analyte (Fc gamma receptors) and the sensorchip matrix.
(§2) The kinetic experiments were carried out at 25° Celsius at a flow rate of 30 μl/min. The HBS-EP buffer was used either as the running buffer or for the preparation of analyte solutions. The analyte solutions were injected during 90 seconds (association phase) with a 90 seconds delay (dissociation phase). An injection of running buffer as analyte was used as a double reference. All the sensorgrams were corrected by this double reference sensorgram.
(§3) After each injection of the analyte, the sensorchip was regenerated by injection of 20 mM NaOH, 75 mM NaCl solution.

[7] = target: T2, Recombinant mouse FcγRI [CD64], …; assay: SPR (Biacore X), Mab on CM4 chip, m-FcγRI as analyte, heterogeneous ligand model, minor component; minor component (19%), lower end
Experimental: as §1, §2
According to this model, the c515H7 Mab Fc domain may be regarded as a mixture of two components.

[8] = target: T2, Recombinant mouse FcγRI [CD64], …; assay: SPR (Biacore X): m-FcγRI injected over c515H7 Mab immobilized on a CM4 sensorchip; heterogeneous ligand model, major component (81%)
Experimental: as §1, §2, §3

[9] = target: T2, Recombinant mouse FcγRI [CD64], …; assay: SPR (Biacore X): m-FcγRI injected over c515H7 Mab immobilized on a CM4 sensorchip; heterogeneous ligand model, minor component (19%)
Experimental: as §1, §2, §3

[10] = target: T3, Recombinant human FcγRIIIA variant V …; assay: SPR (Biacore X): h-FcγRIIIA injected over c515H7 Mab immobilized on a CM4 sensorchip; heterogeneous ligand model, minor component (19%)
Experimental: as §1, §2, §3

[11] = target: T1, Recombinant human FcγRI [CD64], …; assay: SPR (Biacore X): h-FcγRI injected over hz515H7VH1D76NVL2 Mab immobilized on a CM4 sensorchip; heterogeneous ligand model, minor component (1%)
Experimental: The experiments were carried out using a Biacore X device. The soluble forms of the four Fc […]gamma receptors used in this study were purchased from R&D Systems: […]

T1 sequence (P12314 other isoform, or with tags, fused parts or gaps limits assumed): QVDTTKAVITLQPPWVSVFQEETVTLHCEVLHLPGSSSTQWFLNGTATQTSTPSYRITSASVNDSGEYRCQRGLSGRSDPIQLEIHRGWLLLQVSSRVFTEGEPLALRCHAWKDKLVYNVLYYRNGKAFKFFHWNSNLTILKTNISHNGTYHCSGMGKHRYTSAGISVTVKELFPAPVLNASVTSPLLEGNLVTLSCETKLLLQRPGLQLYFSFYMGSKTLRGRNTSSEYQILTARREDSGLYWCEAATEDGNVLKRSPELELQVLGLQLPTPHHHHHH

B1: chimeric antibody c515H7 (antibody, human IgG1, kappa)
heavy: not shown
light: DIVMSQSPSSLAVSAGEKVTMSCKSSQSLFNSRTRKNYLAWYQQKPGQSPKLLIYWASARDSGVPARFTGSGSETYFTLTISRVQAEDLAVYYCMQSFNLRTFGGGTKLEIKRTVAAPSVFIFPPSDEQLKSGTASVVCLLNNFYPREAKVQWKVDNALQSGNSQESVTEQDSKDSTYSLSSTLTLSKADYEKHKVYACEVTHQGLSSPVTKSFNRGEC
notes: Human IgG1/kappa constant domains; also called c515H7 Mab; chimeric 515H7
Kd [1]: 1.2 nM | Kd [2]: 107 nM | Kd [3]: 380 to 450 nM | Kd [4]: 32 to 37 nM | Kd [5]: 160 nM | Kd [6]: 1.22 nM | koff [6]: 0.000599 s⁻¹ | kon [6]: 493000 M⁻¹ s⁻¹ | Kd [7]: 32 to 37 nM | Kd [8]: 416 nM | koff [8]: 0.138 s⁻¹ | kon [8]: 332000 M⁻¹ s⁻¹ | Kd [9]: 34.6 nM | koff [9]: 0.0387 s⁻¹ | kon [9]: 1.12e+06 M⁻¹ s⁻¹ | Kd [10]: 34.7 nM | koff [10]: 0.0124 s⁻¹ | kon [10]: 357000 M⁻¹ s⁻¹

B2: humanized antibody Hz515H7 VH1 D76N VL2 (antibody, human IgG1, kappa)
heavy: not shown
light: B1 light with S5T, A15L, K18R, V19A, G105Q, L109V
notes: IgG1/kappa; also called hz515H7VL2; hz515H7-1
Kd [1]: 0.9 nM | Kd [2]: 95 nM | Kd [3]: 300 to 350 nM | Kd [4]: 27 to 32 nM | Kd [5]: 176 nM | Kd [11]: 0.28 nM | koff [11]: 2e-05 s⁻¹ | kon [11]: 72000 M⁻¹ s⁻¹

From patent US20140120555A1 (PIERRE FABRE MEDICAMENT, published 2014)
